# Source: publication PMC11272584 (Nature Metabolism, 2024)
# Substitutions are numbered along the chain they refer to. Names and notes keep the numbering of the source.
# T1: GIPR T25R (Homo sapiens, UniProt P48546, T25R)
# T1 construct: host or cells: HEK293
# T1 sequence (P48546 22-466 T25R): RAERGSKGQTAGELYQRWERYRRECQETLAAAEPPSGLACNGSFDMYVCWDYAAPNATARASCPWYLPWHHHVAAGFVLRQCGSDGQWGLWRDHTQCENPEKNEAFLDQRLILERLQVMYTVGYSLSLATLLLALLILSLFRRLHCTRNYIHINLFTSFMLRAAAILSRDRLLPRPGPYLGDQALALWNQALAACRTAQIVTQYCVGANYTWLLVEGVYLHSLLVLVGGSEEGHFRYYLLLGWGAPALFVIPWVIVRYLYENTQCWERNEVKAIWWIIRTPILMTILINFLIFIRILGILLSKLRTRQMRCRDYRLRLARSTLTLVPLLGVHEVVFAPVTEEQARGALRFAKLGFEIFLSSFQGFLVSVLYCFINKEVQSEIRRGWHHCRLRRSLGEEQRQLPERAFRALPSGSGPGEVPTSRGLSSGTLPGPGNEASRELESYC
# T2: GIPR R38L (Homo sapiens, UniProt P48546, R38L)
# T2 construct: host or cells: HEK293
# T2 sequence (P48546 22-466 R38L): T1 sequence (P48546 22-466 T25R) with R4T, R17L
# T3: GIPR S415I (Homo sapiens, UniProt P48546, S415I)
# T3 construct: host or cells: HEK293
# T3 sequence (P48546 22-466 S415I): T1 sequence (P48546 22-466 T25R) with R4T, S394I
# T4: GIPR E418K (Homo sapiens, UniProt P48546, E418K)
# T4 construct: host or cells: HEK293
# T4 sequence (P48546 22-466 E418K): T1 sequence (P48546 22-466 T25R) with R4T, E397K
# T5: GIPR G449A (Homo sapiens, UniProt P48546, G449A)
# T5 construct: host or cells: HEK293
# T5 sequence (P48546 22-466 G449A): T1 sequence (P48546 22-466 T25R) with R4T, G428A
# T6: GIPR E461* (Homo sapiens, UniProt P48546)
# T6 construct: host or cells: HEK293
# T6 sequence (P48546 22-460 limits assumed): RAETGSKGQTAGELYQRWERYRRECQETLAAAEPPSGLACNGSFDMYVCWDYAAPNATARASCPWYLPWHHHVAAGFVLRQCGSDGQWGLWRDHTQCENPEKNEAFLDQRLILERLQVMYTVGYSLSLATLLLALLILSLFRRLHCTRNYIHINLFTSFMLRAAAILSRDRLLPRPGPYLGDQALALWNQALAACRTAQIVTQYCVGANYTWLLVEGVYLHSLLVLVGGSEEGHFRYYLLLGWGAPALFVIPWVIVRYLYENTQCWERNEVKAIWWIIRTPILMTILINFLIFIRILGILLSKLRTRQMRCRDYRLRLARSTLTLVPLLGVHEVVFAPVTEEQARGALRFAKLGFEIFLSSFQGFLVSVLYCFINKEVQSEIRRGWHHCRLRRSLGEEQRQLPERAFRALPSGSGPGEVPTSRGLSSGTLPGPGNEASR
# T7: GIPR E463Q (Homo sapiens, UniProt P48546, E463Q)
# T7 construct: host or cells: HEK293
# T7 sequence (P48546 22-466 E463Q): T1 sequence (P48546 22-466 T25R) with R4T, E442Q
# B1: T25R (protein)
# chain: T1 sequence (P48546 22-466 T25R)
# B2: R38L (protein)
# chain: T1 sequence (P48546 22-466 T25R) with R4T, R17L
# B3: S415I (protein)
# chain: T1 sequence (P48546 22-466 T25R) with R4T, S394I
# B4: E418K (protein)
# chain: T1 sequence (P48546 22-466 T25R) with R4T, E397K
# B5: G449A (protein)
# chain: T1 sequence (P48546 22-466 T25R) with R4T, G428A
# B6: E461* (protein)
# chain: T6 sequence (P48546 22-460 limits assumed)
# B7: E463Q (protein)
# chain: T1 sequence (P48546 22-466 T25R) with R4T, E442Q
# Molecular target: T1, GIPR T25R
# Assay: cAMP accumulation
# Assay type: cell-based
# Details: not given
# Method: HEK293 (CRL-1573, American Type Culture Collection) and β-arrestin 1/2 knockout cells, generated from HEK293A[48], were used for cAMP measurement, homologues competition binding and β-arrestin 2 recruitment. […] Both cell lines were cultured at 5% CO2 at 37 °C in Roswell Park Memorial Institute GlutaMAX-I supplemented with 10% fetal bovine serum, 180 units ml^−1 penicillin, and 45 g ml^−1 streptomycin. For the cAMP and binding experiments, cells were transfected with the calcium phosphate precipitation method[49].
# cAMP production was measured with the DiscoverX Hithunter cAMP assay according to the manufacturer’s protocol (DiscoverX). […] On the day of the assay, the cells were washed twice with HEPES-buffered saline (HBS) and incubated with HBS and 1 mM 3-isobutyl-1-methylxanthine for 30 min at 37 °C. […] After the incubation, the assay medium was removed from the plate and the cells were washed with 30 µl PBS and treated with 40 µl enzyme donor–lysis buffer–chemiluminescent reagents and 10 µl cAMP antibodies for 60 min before 40 µl enzyme acceptor solution added. After a 3-h incubation on a shaking table in the dark, the cAMP accumulation was measured based on luminescence with a Perkin Elmer EnVision 2104 Multilabel Microplate Reader. […]
row,Molecule,Efficacy at 100pmol (cAMP)
1,B1,0.6972

# Molecular target: T2, GIPR R38L
# Assay: cAMP accumulation
# Assay type: cell-based
# Details: not given
row,Molecule,Efficacy at 100pmol (cAMP)
1,B2,0.843

# Molecular target: T3, GIPR S415I
# Assay: cAMP accumulation
# Assay type: cell-based
# Details: not given
row,Molecule,Efficacy at 100pmol (cAMP)
1,B3,0.6572

# Molecular target: T4, GIPR E418K
# Assay: cAMP accumulation
# Assay type: cell-based
# Details: not given
row,Molecule,Efficacy at 100pmol (cAMP)
1,B4,0.7942

# Molecular target: T5, GIPR G449A
# Assay: cAMP accumulation
# Assay type: cell-based
# Details: not given
row,Molecule,Efficacy at 100pmol (cAMP)
1,B5,0.609

# Molecular target: T6, GIPR E461*
# Assay: cAMP accumulation
# Assay type: cell-based
# Details: not given
row,Molecule,Efficacy at 100pmol (cAMP)
1,B6,1.495

# Molecular target: T7, GIPR E463Q
# Assay: cAMP accumulation
# Assay type: cell-based
# Details: not given
row,Molecule,Efficacy at 100pmol (cAMP)
1,B7,0.9097

# System: GIPR variants (groups)
# Assay: cAMP accumulation
# Assay type: cell-based, human
# Details: cAMP part of the in vitro group
# Method: HEK293 (CRL-1573, American Type Culture Collection) and β-arrestin 1/2 knockout cells, generated from HEK293A[48], were used for cAMP measurement, homologues competition binding and β-arrestin 2 recruitment. For the internalization assay, endosomal signalling and basal receptor localization experiments, HEK293A (R70507, Thermo Fisher) cells were used. Both cell lines were cultured at 5% CO2 at 37 °C in Roswell Park Memorial Institute GlutaMAX-I supplemented with 10% fetal bovine serum, 180 units ml^−1 penicillin, and 45 g ml^−1 streptomycin. For the cAMP and binding experiments, cells were transfected with the calcium phosphate precipitation method[49]. The polyethyleneimine (PEI) transfection method was used for the β-arrestin 2 recruitment assays[50], endosomal signalling and basal receptor localization assays, while the lipofectamine transfection method was used for the internalization assay.
# cAMP production was measured with the DiscoverX Hithunter cAMP assay according to the manufacturer’s protocol (DiscoverX). […] On the day of the assay, the cells were washed twice with HEPES-buffered saline (HBS) and incubated with HBS and 1 mM 3-isobutyl-1-methylxanthine for 30 min at 37 °C. […] After the incubation, the assay medium was removed from the plate and the cells were washed with 30 µl PBS and treated with 40 µl enzyme donor–lysis buffer–chemiluminescent reagents and 10 µl cAMP antibodies for 60 min before 40 µl enzyme acceptor solution added. After a 3-h incubation on a shaking table in the dark, the cAMP accumulation was measured based on luminescence with a Perkin Elmer EnVision 2104 Multilabel Microplate Reader.
# For cAMP accumulation, the data were fitted as a sigmoidal curve with a Hill slope of 1; for homologous competition binding, the data were fitted as a sigmoidal curve with a Hill slope of −1.
row,Molecule,In vitro groups (cAMP)
1,B6,GoF_camp
2,B3,WT-like_camp
3,B7,WT-like_camp
4,B2,WT-like_camp
5,B4,WT-like_camp
6,B5,WT-like_camp
7,B1,WT-like_camp

# Same assay, conditions: cAMP production compared with WT
row,Molecule,percentage_camp [% cAMP]
1,B6,>50
2,B3,>50
3,B7,>50
4,B2,>50
5,B4,>50
6,B5,>50
7,B1,>50

# Same assay, conditions: in vitro cAMP production per GIPR variant
row,Molecule,"Beta, cAMP"
1,B3,0.6572
2,B7,0.9097
3,B2,0.843
4,B4,0.7942
5,B5,0.609
6,B1,0.6972

# System: GIPR variants (groups)
# Assay: β-arrestin 2 recruitment (BRET);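 note: BRET readout of β-arrestin 2 recruitment in transiently transfected HEK293 cells expressing WT GIPR or a GIPR variant plus GPCR kinase 2, Rluc8 donor and citrine acceptor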
# Details: arr part of the in vitro group
row,Molecule,In vitro groups (β-arrestin)
1,B6,WT-like_arr
2,B3,WT-like_arr
3,B7,WT-like_arr
4,B2,WT-like_arr
5,B4,WT-like_arr
6,B5,WT-like_arr
7,B1,LoF_arr

# Same assay, conditions: in vitro β-arrestin recruitment per GIPR variant
row,Molecule,"Beta, Barr"
1,B3,0.9285
2,B7,0.4933
3,B2,0.8228
4,B4,0.9111
5,B5,0.5256
6,B1,0.193
